Laboratory results reported in publication PMC9943660.
Where a chain is given by its changes, count along the chain named.

Tests used:
Experiment in all cases: SPR
[1] = biological target: T1, MutS D835R (Escherichia coli, UniProt P23909 1-853, D835R)
T1 sequence: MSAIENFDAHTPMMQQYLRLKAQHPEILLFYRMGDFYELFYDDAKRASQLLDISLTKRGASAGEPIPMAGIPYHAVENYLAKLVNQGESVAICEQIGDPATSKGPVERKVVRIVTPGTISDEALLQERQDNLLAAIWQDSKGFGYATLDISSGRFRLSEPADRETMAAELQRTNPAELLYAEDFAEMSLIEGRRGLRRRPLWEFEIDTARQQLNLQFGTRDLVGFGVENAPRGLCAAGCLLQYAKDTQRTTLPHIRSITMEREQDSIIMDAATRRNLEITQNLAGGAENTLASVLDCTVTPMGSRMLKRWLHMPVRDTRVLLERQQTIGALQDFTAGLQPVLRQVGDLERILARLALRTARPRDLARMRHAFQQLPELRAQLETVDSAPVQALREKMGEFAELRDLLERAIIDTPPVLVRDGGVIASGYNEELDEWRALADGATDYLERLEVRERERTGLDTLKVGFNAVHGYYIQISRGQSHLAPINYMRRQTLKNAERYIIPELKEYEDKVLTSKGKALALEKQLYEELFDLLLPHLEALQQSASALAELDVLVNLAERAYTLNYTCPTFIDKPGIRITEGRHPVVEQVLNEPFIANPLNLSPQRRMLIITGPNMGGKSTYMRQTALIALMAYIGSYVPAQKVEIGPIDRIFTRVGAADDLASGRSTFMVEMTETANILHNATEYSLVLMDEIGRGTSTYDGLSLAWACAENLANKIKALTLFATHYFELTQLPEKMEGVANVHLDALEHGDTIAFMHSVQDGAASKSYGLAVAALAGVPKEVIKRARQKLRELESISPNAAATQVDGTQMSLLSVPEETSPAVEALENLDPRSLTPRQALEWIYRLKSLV

[2] = biological target: MSH2 WT (MutSα);MSH6 WT (MutSα) (human;human, UniProt P43246;P52701 1-934;1-1360, |)
[3] = biological target: MSH2 dMBD2;MSH6 WT (MutSα) (human;human, UniProt P43246;P52701 125-934;1-1360, |)
[4] = biological target: MSH2 del2-7;MSH6 WT (MutSα) (human;human, UniProt P43246;P52701 1-934;1-1360, del2-7|)
[5] = biological target: T2, MutS WT (Escherichia coli, UniProt P23909 1-853)
T2 sequence: T1 sequence with R835D

B1: 21 bp GT mismatch (SPR) (dsDNA)
DNA 1: TTTTTTTTTTTTTTTTTTTTAGTCGCCAGGGACCAGTGTCA
DNA 2: TGACACTGGTCTCTGGCGACT
Binder B1 has a Kd [1] of 30.85 ± 0.08 nM, a Kd [2] of 1.08 ± 0.02 nM and a Kd [3] of 16.4 ± 0.86 nM. For the same binder, the Kd [4] was 3.28 ± 0.12 nM and the binding result [5] was “binds”.
